Common to all, as to format: biochemical, Z. mays
The test system of data set [1] is 4-hydroxyphenylpyruvate dioxygenase (HPPD). Briefly: ON rate ratio: HPPD reaction rate with vs without inhibitor in the 70 to 90 second interval. The settings on record: Table 7; tembotrione; combinatorial variants. The text has this:
(§1) Higher KD (reduced affinity or increased insensitivity) can be attained with a numerically smaller ON rate, a larger OFF rate or both. To detect and quantify changes in kON and kOFF, observations of the time course of an HPPD reaction as inhibitor binds to and inactivates the enzyme (kON), or is released from a pre-formed enzyme-inhibitor complex (kOFF) were used, as shown in FIGS. 13A and 13B. In practice, a quantitative indicator of kON was obtained by monitoring the time courses of HPPD reactions containing 60 or 120 nM HPPD and 100 μM HPP in the presence and absence of 4 μM inhibitor (e.g., mesotrione or tembotrione). The ratio of the reaction rate with inhibitor to that without inhibitor during the 70 to 90 second interval of the reaction was termed the “ON rate ratio”. The smaller the actual kON, the more slowly the HPPD reaction decelerates and the higher the value is for the ON rate ratio. FIGS. 13A and 13B illustrate the contrasting reaction velocity in the 70-90 sec interval for maize wild-type HPPD (FIG. 13A) versus an improved variant (SEQ ID NO:78) (FIG. 13B).

The test system is the same in data set [2]. Briefly: OFF rate ratio: release of inhibitor from pre-formed enzyme-inhibitor complex. Conditions: Table 7; tembotrione; combinatorial variants. The protocol:
A quantitative indicator of kOFF can be obtained by observing the time course of an HPPD reaction as inhibitor is released from a pre-formed enzyme-inhibitor complex. HPPD and inhibitor were incubated together at concentrations of 7.2 and 8 μM, respectively. Incubations with the same concentrations of enzyme but no inhibitor were done in parallel. After 1 hr at room temperature, 5 to 10 μl of the enzyme-inhibitor complex was dispensed into the wells of the assay plate. Reactions were started with the addition of 290 to 295 μl of 25 mM Hepes, pH 7, 2 mM ascorbate, 10 μM FeSO4, 100 μM HPP and 50 nM HGD. The reactions were monitored at 320 nm for 12 min. Reaction velocity accelerates as inhibitor is released from the enzyme until a steady state is reached, during which the reaction velocity is constant. The ratio of the steady state rate in mixtures containing herbicidal inhibitor to the initial velocity of mixtures lacking inhibitor is termed the “OFF rate ratio”.
Another parameter to record is the time span required for the reactions with inhibitor to reach the steady state. FIGS. 13C and 13D illustrate the contrasting time span in which maize wild-type HPPD (FIG. 13C) and an improved variant (SEQ ID NO:78) (FIG. 13D) dissociated from mesotrione, as indicated by the accelerating reaction rates. The plateau of absorbance is due to exhaustion of the substrate. With the improved variant, not only was the steady state attained in a shorter time span (80 sec for the variant versus 280 sec for wild type), the velocity attained was twice as high as with wild type, though the enzymes were present at the same concentration (240 nM). This is because a larger fraction of the variant enzyme is free of inhibitor compared to the wild-type enzyme, and the kcat for both is nearly the same, about 220 min^−1.

Data set [3] has the same test system. Briefly: Insensitivity parameter (ON × OFF) and trait fitness (ON × OFF × kcat/KM or × kcat). On the set-up: key to ON × OFF / Insensitivity, mesotrione, ON × OFF / Insensitivity, tembotrione, ON × OFF / Insensitivity, topramezone, ON × OFF / Insensitivity, sulcotrione, ON × OFF / Insensitivity, isoxaflutole (DKN), ON × OFF: insensitivity = ON rate ratio × OFF rate ratio (surrogate for KD). The text has this: Because substrate and inhibitors bind in the same site, the high concentration of substrate present may competitively trap the inhibitor and prevent it from binding again. To be sure that improvement in ON rates is being taken into account, the ON and OFF rate ratios were multiplied, creating an “insensitivity parameter” that is a surrogate for KD. KD is expressed as kOFF/kON, but because the ON rate ratio is an inverse parameter (the higher the value of ON rate ratio, the lower the value of the represented phenomenon, kON), it is appropriate to multiply ON and OFF rate ratios rather then divide OFF rate ratio by ON rate ratio. Another parameter, which quantifies the combined catalytic and insensitivity properties of the enzyme is kcat/KM×ON rate ratio×OFF rate ratio, and is termed “trait fitness”. This parameter is intended to have a meaning similar to the commonly used expression kcat/KM×Ki.

The test system is the same in data set [4]. Briefly: Estimate of kcat from initial rate at saturating hydroxyphenylpyruvate without inhibitor (ON rate ratio assay).
From the text: as §1
Thirty nine variants were desensitized to tembotrione compared with the backbone enzyme, Round 7, variant 9070 (SEQ ID NO:2) and all were desensitized compared with maize wild type HPPD (SEQ ID NO:1). Because the assay for ON rate ratio includes an initial rate measurement at saturating hydroxyphenylpyruvate without inhibitor and with known enzyme concentration, an estimate of kcat was available. Taking into account kcat and insensitivity parameters, 30 variants were selected for measurement of substrate saturation kinetic parameters and re-evaluation of insensitivity to tembotrione. The kinetic and insensitivity parameters were determined as described in Example 1, and were multiplied to generate the “trait fitness” parameter. The complete list of variants, i.e., of selected single substitutions in SEQ ID NO:2, analyzed with multiple inhibitors and the results obtained are shown in Table 6. The same set of 30 variants were evaluated for insensitivity to mesotrione, sulcotrione, isoxaflutole (its active diketonitrile form, abbreviated DKN in Table 6) and topramezone.

The mark [5] stands for this setting: Table 7, tembotrione, combinatorial variants.
[6] abbreviates: Table 7, combinatorial variants.

A word on the kcat: it is the number of substrate molecules converted per active site and unit of time at saturation.

B1: P056028-B-08 (protein)
chain: MGPTPTATAAGAAVAAASAAEQAAFRLVGHRNFVRFNPRSDRFQTLAFHHVELWCADAASAAGRFSFALGVPLAARSDLSTGNSAHASLLLRSGSLSLLFTAPYAHGADAATAALPSFSAAAARRFAADHGLAVRAVALRVADAEDAFRASVAAGARPAFGPVDLGRGFRLAEVELYGDVVLRYVSYPDGAAGEPFLPGFEGVASPGAADYGLSRFDHIVGNVPELAPAAAYMAGFTGFHEFAEFTTEDVGTTESGLNSMALANNSENVLLPLNEPVHGTKRRSQIQTFLDHHGGPGVQHIALASDDVLRTLREMRARSAMGGFEFLPPPLSDYYDGVRKCAGDVLTEAQINECQELGVMVDRDDEGVLLQIFTKPVGDRPTFFLEIIQRIGCMEKDEKGQEYQKGGCGGFGKGNFGQLFKSIEDYEKSLEAKQAAAAATAQGS
modifications: Zea mays variant form created by artificial means.
With B1, in data set [1], the ON rate ratio turned out to be 0.681. Besides, the OFF rate ratio in data set [2] is on record as 0.325. Further, the “ON × OFF” value in data set [3] (Megatable 3, shuffled variants) is recorded as 0.221; in data set [3] (setting [5]) it was 0.221. The “ON × OFF × kcat” value in data set [3] (Megatable 3, shuffled variants) was 3.44; in data set [3] (setting [5]), 3.44. The kcat is 0.258 s⁻¹ in data set [4] (Megatable 3, shuffled variants) and 0.258 s⁻¹ in data set [4] (setting [6]).

B2: P056028-C-02 (protein)
chain: MGPTPTATAAGAAVAAASAAEQAAFRLVGHRNFVRFNPRSDRFQTLAFHHVELWCADAASAAGRFSFALGVPLAARSDLSTGNSAHASLLLRSGSLSLLFTAPYAHGADAATAALPSFSAAAARRFAADHGLAVRAVALRVADAEDAFRASVAAGARPAFGPVDLGRGFRLAEVELYGDVVLRYVSYPDGAAGEPFLPGFEGVASPGAADLGLSRFDHIVGNVPELAPAAAYMAGFTGFHEFAEFTTEDVGTTESGLNSMALANNSENVLLPLNEPVHGTKRRSQIQTFLDHHGGPGVQHIALASDDVLRTLREMRARSAMGGFEFLPPPLSDYYDGVRRCAGDVLTEAQINECQKLGVMVDRDDEGVLLQIFTKPVGDRPTFFLEIIQRIGCMEKDEKGQEYQKGGCGGFGKGNFGQLFKSIEDYEKSLEAKQAAAAATAQGS
modifications: Zea mays variant form created by artificial means.
Consider B2, for which the ON rate ratio in data set [1] is reported as 0.717. The OFF rate ratio in data set [2] was 0.379. Further, the “ON × OFF” value in data set [3] (Megatable 3, shuffled variants) came to 0.272; in data set [3] (setting [5]) it was 0.272. Further, the “ON × OFF × kcat” value came out at 5.11 in data set [3] (Megatable 3, shuffled variants) and 5.11 in data set [3] (setting [5]). Also, the kcat in data set [4] (Megatable 3, shuffled variants) was 0.313 s⁻¹; in data set [4] (setting [6]), 0.313 s⁻¹.

B3: P056028-C-11 (protein)
chain: MGPTPTATAAGAAVAAASAAEQAAFRLVGHRNFVRFNPRSDRFQTLAFHHVELWCADAASAAGRFSFALGVPLAARSDLSTGNSAHASLLLRSGSLSLLFTAPYAHGADAATAALPSFSAAAARRFAADHGLAVRAVALRVADAEDAFRASVAAGARPAFGPVDLGRGFRLAEVELYGDVVLRYVSYPDGAAGEPFLPGFEGVASPGAADLGLSRFDHIVGNVPELAPAAAYMAGFTGFHEFAEFTTEDVGTTESGLNSMALANNSENVLLPLNEPVHGTKRRSQIQTFLDHHGGPGVQHIALASDDVLRTLREMRARSAMGGFEFLPPPLSDYYDGVRKCAGDVLTEAQINECQELGVMVDRDDEGVLLQIFTKPVGDRPTFFLELIQRIGCMEKDEKGQEYQKGGCGGFGKGNFGQLFKSIEDYEKSLEAKQAAAAATAQGS
modifications: Zea mays variant form created by artificial means.
For the molecule B3, the ON rate ratio in data set [1] came out at 0.731. Besides, the OFF rate ratio in data set [2] came out at 0.293. In addition, the “ON × OFF” value in data set [3] (Megatable 3, shuffled variants) is recorded as 0.214; in data set [3] (setting [5]) it was 0.214. Moreover, the “ON × OFF × kcat” value in data set [3] (Megatable 3, shuffled variants) was determined as 2.64; in data set [3] (setting [5]) it was 2.64. In addition, the catalytic constant (kcat) was 0.205 s⁻¹ in data set [4] (Megatable 3, shuffled variants) and 0.205 s⁻¹ in data set [4] (setting [6]).

B4: P056028-C-10 (protein)
chain: MGPTPTATAAGAAVAAASAAEQAAFRLVGHRNFVRFNPRSDRFQTLAFHHVELWCADAASAAGRFSFALGVPLAARSDLSTGNSAHASLLLRSGSLSLLFTAPYAHGADAATAALPSFSAAAARRFAADHGLAVRAVALRVADAEDAFRASVAAGARPAFGPVDLGRGFRLAEVELYGDVVLRYVSYSDGAAGEPFLPGFEGVASPGAADYGLSRFDHIVGNVPELAPAAAYMAGFTGFHEFAEFTTEDVGTTESGLNSMALANNSENVLLPLNEPVHGTKRRSQIQTFLDHHGGPGVQHIALASDDVLRTLREMRARSAMGGFEFLPPPLSDYYDGVRKCAGDVLTEAQINECQELGVMVDRDDEGVLLQIFTKPVGDRPTFFLEIIQRIGCMEKDEKGQEYQKGGCGGFGKGNFGQLFKSIEDYEKSLEAKQAAAAATAQGS
modifications: Zea mays variant form created by artificial means.
Regarding B4, in data set [1], the ON rate ratio came out at 0.699. Besides, the OFF rate ratio in data set [2] stood at 0.356. Also, the “ON × OFF” value in data set [3] (Megatable 3, shuffled variants) was determined as 0.249; in data set [3] (setting [5]), 0.249. In addition, the “ON × OFF × kcat” value was found to be 3.63 in data set [3] (Megatable 3, shuffled variants) and 3.63 in data set [3] (setting [5]). The kcat was 0.243 s⁻¹ in data set [4] (Megatable 3, shuffled variants) and 0.243 s⁻¹ in data set [4] (setting [6]).

B5: P056028-C-03 (protein)
chain: MGPTPTATAAGAAVAAASAAEQAAFRLVGHRNFVRFNPRSDRFQTLAFHHVELWCADAASAAGRFSYALGVPLAARSDLSTGNSAHASLLLRSGSLSLLFTAPYAHGADAATAALPSFSAAAARRFAADHGLAVRAVALRVADAEDAFRASVAAGARPAFGPVDLGRGFRLAEVELYGDVVLRYVSYPDGAAGEPFLPGFEGVASPGAADYGLSRFDHIVGNVPELAPAAAYMAGFTGFHEFAEFTTEDVGTTESGLNSMALANNSENVLLPLNEPVHGTKRRSQIQTFLDHHGGPGVQHIALASDDVLRTLREMRARSAMGGFEFLPPPLSDYYDGVRKCAGDVLTEAQINECQELGVMVDRDDEGVLLQIFTKPVGDRPTFFIELIQRIGCMEKDEKGQEYQKGGCGGFGKGNFGQLFKSIEDYEKSLEAKQAAAAATAQGS
modifications: Zea mays variant form created by artificial means.
Turning to B5, the ON rate ratio in data set [1] is 0.739. The OFF rate ratio in data set [2] turned out to be 0.356. The “ON × OFF” value in data set [3] (Megatable 3, shuffled variants) was determined as 0.263; in data set [3] (setting [5]), 0.263. The “ON × OFF × kcat” value in data set [3] (Megatable 3, shuffled variants) came out at 3.62; in data set [3] (setting [5]), 3.62. Besides, the kcat in data set [4] (Megatable 3, shuffled variants) is 0.228 s⁻¹; in data set [4] (setting [6]), 0.228 s⁻¹.

The record behind these values is patent US11015206B2, “Compositions and methods comprising sequences having hydroxyphenylpyruvate dioxygenase (HPPD) activity” (PIONEER HI-BRED INTERNATIONAL, INC., priority 2014, dated 2021).
